# Laboratory results published in the supplement of paper PMC10724198.
# ± gives the standard deviation of the averaged measurements.
# Key:
# [1] = test system: Saccharomyces cerevisiae; experiment: protein stability index of tFT-peptide fusion (C-terminal peptide) (PSI (0-1 scale)); higher = more stable (slower turnover)
# Description: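 MPS profiling in S. cerevisiae of the tFT-X12 degron library: putative degron peptides plus stable controls, 12 aa, fused to the C-terminus of a sfGFP-mCherry timer. Cells are FACS-sorted into 8 mCherry/sfGFP bins and deep-sequenced. PSI runs from 0 (unstable) to 1 (stable). Backgrounds are wild type, das1Δ and doa10Δ at 30 °C, and wild type, das1Δ, cdc34-1 and cdc53-1 at 37 °C; 2-3 technical replicates each.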
# [2] = test system: Saccharomyces cerevisiae; experiment: as above; conditions: genetic background: wild type; temperature: 30 C
# [3] = genetic background: cdc34-1, temperature: 37 C
# [4] = genetic background: cdc53-1, temperature: 37 C
# [5] = genetic background: das1 deletion, temperature: 30 C
# [6] = genetic background: das1 deletion, temperature: 37 C
# [7] = genetic background: doa10 deletion, temperature: 30 C
# [8] = genetic background: wild type, temperature: 30 C
# [9] = genetic background: wild type, temperature: 37 C
# 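Note: PSI is a weighted mean of sequencing reads over stability bins, variants kept only with over 10 reads, mCherry proximal and sfGFP distal, peptide attached via GGGS linker.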
Sequence,"protein stability index [1, 3]","protein stability index [1, 4]","protein stability index [1, 5]","protein stability index [1, 6]","protein stability index [1, 7]","protein stability index [1, 8]","protein stability index [1, 9]",protein stability index [2]
ACEFRFFYVFRC,0.304 ± 0.0093,0.245 ± 0.016,0.31 ± 0.056,0.425 ± 0.015,0.278 ± 0.0034,0.176 ± 0.016,0.287 ± 0.034,0.315 ± 0.008
SWLAQCVVISLL,0.634 ± 0.015,0.654 ± 0.014,0.507 ± 0.029,0.662 ± 0.016,0.352 ± 0.0055,0.364 ± 0.019,0.56 ± 0.061,0.459 ± 0.011
LFIFYCFFFLVR,0.27 ± 0.059,0.379 ± 0.087,0.318 ± 0.043,0.395 ± 0.0053,0.359 ± 0.029,0.294 ± 0.0066,0.3824 ± 0.002,0.352 ± 0.051
KLKTSHILIKQT,0.665 ± 0.059,0.729 ± 0.0099,0.606 ± 0.029,0.716 ± 0.024,0.1562 ± 0.0013,0.223 ± 0.033,0.452 ± 0.011,0.3668 ± 0.0036
WVFMVILLVFLV,0.216 ± 0.0073,0.268 ± 0.017,0.257 ± 0.021,0.33 ± 0.038,0.28 ± 0.0053,0.228 ± 0.022,0.315 ± 0.014,0.3041 ± 0.0026
LSLVIFIFLYCR,0.0945 ± 0.016,0.123 ± 0.037,0.179 ± 0.0092,0.234 ± 0.0042,0.27 ± 0.033,0.169 ± 0.023,0.205 ± 0.027,0.227 ± 0.053
RPCLSALRFRFF,0.68 ± 0.037,0.764 ± 0.029,0.655 ± 0.042,0.727 ± 0.064,0.141 ± 0.023,0.162 ± 0.026,0.3204 ± 0.00076,0.206 ± 0.015
GPNWCSVCQGVG,0.421 ± 0.03,0.477 ± 0.028,0.43 ± 0.011,0.4926 ± 0.0034,0.446 ± 0.0064,0.426 ± 0.013,0.4733 ± 0.00063,0.453 ± 0.015
LFWWCMVFISLI,0.3069 ± 0.0013,0.37 ± 0.015,0.285 ± 0.041,0.413 ± 0.0096,0.212 ± 0.017,0.231 ± 0.029,0.3395 ± 0.00099,0.3 ± 0.019
KLSLRYLLVSLI,0.513 ± 0.013,0.602 ± 0.045,0.456 ± 0.018,0.606 ± 0.011,0.101 ± 0.0044,0.115 ± 0.025,0.153 ± 0.012,0.188 ± 0.049
